In patent US9102755B2, “Highly stabilized epidermal growth factor mutants” (PnP Biopharm Co., Ltd., priority 2013, dated 2015):
Entries after “also recorded” stand apart in the source; their conditions may differ.

Tests used:
[1] = Circular dichroism after incubation at 60° C.; assay type: physicochemical; details: for Percentage to wild-type EGF (CD signal value at 200 nm): 0.3 mg/ml, 20 mM sodium phosphate pH 5.5, 60° C., five days
Method: The stabilities of wild-type EGF and mutants should be confirmed through being stored at room temperature for a long period of time, but there is a disadvantage in that the time is too long. Therefore, the incubation test was performed at extreme environment for a short period of time. 0.3 mg/ml of each of the wild-type EGF and mutants was dissolved in 20 mM sodium phosphate (pH 5.5), and then subjected to the incubation in a water bath of 60° C. The sampling was performed per 24 hours unit, and then centrifuged at 13000 rpm and 4° C. for 15 minutes to collect the supernatant. The supernatant was diluted with 20 mM sodium phosphate (pH 5.5), and its structure was measured by using a circular dichroism. And then, the supernatant was added to 0.1 cm cell, and its structure was analyzed under the conditions of, in a region of 190 nm to 250 nm, band width 1 nm, response 0.25 sec, data pitch 0.1 nm, scanning speed 20 nm/min, cell length 1 cm, accumulation 8 times, a temperature of 20° C. […] In order to easily confirm such a result, the graph as illustrated in FIG. 3 is used using the ratio of the signal value at a first day to the signal value at 200 nm that has the biggest difference of signals. Table. […] From such a result, it can be confirmed that the EGF mutants prepared in the present invention have excellent thermal stability and solubility.

[2] = Solubility of wild-type and mutant EGFs in 20 mM sodium phosphate (pH 5.5); assay type: physicochemical; details: for Solubility: 1 mg in 1 ml 20 mM sodium phosphate pH 5.5, supernatant, Bradford and UV method; for Solubility (Comparison with wild-type %): 20 mM sodium phosphate pH 5.5, relative to wild-type EGF
Method: 1 mg of the respective wild-type and mutant EGFs prepared was dissolved in 1 ml of 20 mM sodium phosphate (pH 5.5 that is the similarly pH environment as cosmetics). In order to remove undissolved EGF, the mixture thus obtained was centrifuged and then supernatant was obtained. The concentration of the supernatant thus obtained was measured by using a Bradford method and UV method.

[3] = Structure and thermal stability (Tm) by circular dichroism; assay type: physicochemical; details: 0.1 mg/ml; for Structure change: circular dichroism 190-250 nm, 20 mM sodium phosphate pH 5.5, 20° C., versus wild-type EGF; for Tm (melting temperature): circular dichroism, 20° C. to 95° C. at 1° C./min
Method: The structure and thermal stability of the purified EGF mutant were measured through a circular dichroism analysis using a J-810 spectrometer (JASCO). As the wild-type EGF, the purified EGF prepared in Example 2 was used. In order to analyze the structure, each EGF was dissolved in 20 mM sodium phosphate (pH 5.5) to be uniformly a final concentration of 0.1 mg/ml. And then, the dissolved EGF solution was added to 0.1 cm cell, and then its structure was analyzed under the conditions of, as 190 nm to 250 nm region, band width 1 nm, response 0.25 sec, data pitch 0.1 nm, scanning speed 20 nm/min, cell length 1 cm, accumulation 8 times, and a temperature of 20° C.
In order to analyze the thermal stability, a wavelength of 200 nm was determined through a comparison analysis of far-UV at the Tm (melting temperature) of 20° C. and 95° C., and progressed in a concentration of 0.1 mg/ml in 0.1 cm cell. As the conditions, it was measured at 20° C. to 95° C. under condition of 1° C./min.
The structure is changed at the band of about 195 nm when generating a folding-unfolding phenomenon. Using it, the melting temperature (Tm) was measured in the range of 20 to 95° C., and thus the accurate Tm value was analyzed. As a result, as for the structure change, most mutants had the similar structure as the wild-type EGF, and thus there were few changes. […] It can be confirmed that the thermal stabilities of M2 and M3 were improved by 87° C.

[4] = test system: NIH3T3 cell line; assay: Test of cell proliferation after incubation in cosmetic basic essence; assay type: cell-based; details: 60° C., 5 days, versus wild-type EGF, FIG. 4
Method: And then, the incubated samples were centrifuged to collect supernatants.

Substance	Percentage to wild-type EGF (CD signal value at 200 nm) [1]	Solubility [2]	Solubility (Comparison with wild-type %) [2]	Structure change [3]	Tm (melting temperature) [3]	CD structure signal over time (in words) ([1]; 60° C., 20 mM sodium phosphate pH 5.5, sampling per 24 hours, compared with the mutants, FIG. 3)	Tm (melting temperature) ([3]; listed as Wide type EGF)	Cell proliferation activity after incubation [4]
C-25-1: EGF mutant, 25th alanine substituted with serine (SEQ ID NO: 72) (NSDSECPLSHDGYCLHDGVCMYIESLDKYACNCVVGYIGERCQYRDLKWWELR; not fully specified; Epidermal growth factor; UniProt P01133 971-1023, looked up, variant A25S)	106.38%	617.8 µg/mL	122%	No change	(76° C.)			
Wild-type EGF: human epidermal growth factor, 53 amino acids, SEQ ID NO:1, produced in E. coli (Example 2) [reference compound]	100%	507.3 µg/mL	100%		76 °C	significantly decreased	(76° C.)	
M3: EGF mutant by fusion of A-8-2, D-38-10, and E-46-2; SEQ ID NO:2 (NSDSECPSSHDGYCLHDGVCMYIEALDKYACNCVVGYCGERCQYRCLKWWELR; not fully specified)		681.7 µg/mL	134%	slightly changed; also recorded: Little change				higher cell proliferation activity
D-34-2: EGF mutant, 34th valine substituted with glutamic acid (SEQ ID NO: 76) (NSDSECPLSHDGYCLHDGVCMYIEALDKYACNCEVGYIGERCQYRDLKWWELR; not fully specified; Epidermal growth factor; UniProt P01133 971-1023, looked up, variant V34E)	111.10%			No change	(76° C.)			
